Data published in paper PMC2833306.

Target: integrins on HS deficient CHO-2241 cells (Chinese hamster (endogenous in CHO-2241))
Test: flow cytometry on cells; CHO-2241 cells (HS deficient) in PBS 1 mM CaCl2, 1 h at 4°C with 15 ug/mL particles; bound particles detected with rabbit serum against the Ad3 penton base and FITC secondary antibody

## MutAQAS dodecahedron (HAd3 penton base, KQKR to AQAS) (from UniProt Q2Y0H9 1-544) (complex)
  inhibition of binding compared to Bs-Dd: 80%
